The supplement of paper PMC9233669
This sample holds only a part of the variants without activity.

Experiments:
[1] = system: biotinyl-Phe-oxazolone; test: self-aminoacylation, catalytic enhancement (BFO) (fold over background); higher = more active; k-Seq, kA / k0A0; sequences stand for … in GGGAAUGGAUCCACAUCUACGAAUUC…UUCACUGCAGACUUGACGAAGCUG
How it was run: (§1)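 Working in 50 μL HEPES/NaCl/KCl/MgCl2/CaCl2 buffer with 5% acetonitrile at pH 6.9–7.0, mutagenized RNA pools (0.43 μM; 21-nt variable region) were reacted with 2–1250 μM of each biotinyl-aminoacyl-oxazolone for 90 minutes at room temperature. Streptavidin capture followed, with quantification by triplicate qPCR and Illumina sequencing. Catalytic enhancement is reported as median kA over the uncatalyzed rate, the low-activity peak of a bimodal Gaussian fit to the data.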

[2] = system: biotinyl-Ile-oxazolone; test: self-aminoacylation, catalytic enhancement (BIO) (fold over background); higher = more active; k-Seq, kA / k0A0; sequences stand for … in GGGAAUGGAUCCACAUCUACGAAUUC…UUCACUGCAGACUUGACGAAGCUG
How it was run: as §1

[3] = system: biotinyl-Met-oxazolone; test: self-aminoacylation, catalytic enhancement (BMO) (fold over background); higher = more active; k-Seq, kA / k0A0; sequences stand for … in GGGAAUGGAUCCACAUCUACGAAUUC…UUCACUGCAGACUUGACGAAGCUG
How it was run: as §1

[4] = system: biotinyl-Val-oxazolone; test: self-aminoacylation, catalytic enhancement (BVO) (fold over background); higher = more active; k-Seq, kA / k0A0; sequences stand for … in GGGAAUGGAUCCACAUCUACGAAUUC…UUCACUGCAGACUUGACGAAGCUG
How it was run: as §1

[5] = system: biotinyl-Leu-oxazolone; test: self-aminoacylation, catalytic enhancement (BLO) (fold over background); higher = more active; k-Seq, kA / k0A0; sequences stand for … in GGGAAUGGAUCCACAUCUACGAAUUC…UUCACUGCAGACUUGACGAAGCUG
How it was run: as §1

[6] = system: biotinyl-Trp-oxazolone; test: self-aminoacylation, catalytic enhancement (BWO) (fold over background); higher = more active; k-Seq, kA / k0A0; sequences stand for … in GGGAAUGGAUCCACAUCUACGAAUUC…UUCACUGCAGACUUGACGAAGCUG
How it was run: as §1

| Sequence | self-aminoacylation [1] | self-aminoacylation [2] | self-aminoacylation [3] | self-aminoacylation [4] | self-aminoacylation [5] | self-aminoacylation [6] |
| --- | --- | --- | --- | --- | --- | --- |
| AUUUACCUAAGUCAUCGGGUG [Fam2.2 aminoacylation ribozyme variant] | 64.2 | 4.85 | 7.89 | 4.66 | 11.1 | 7.89 |
| AUUUACCUAGAUCAUCGGGUG [Fam2.2 aminoacylation ribozyme variant] | 12.3 | 2.17 | 2.35 | 1.88 | 3 | 3.38 |
| AUUUACCUAGGGCAUCGGGUG [Fam2.2 aminoacylation ribozyme variant] | 16.7 | 2.92 | 3.65 | 3.12 | 3.47 | 3.7 |
| AUUUACCUAGGUAAUCGGGUG [Fam2.2 aminoacylation ribozyme variant] | 17.3 | 1.85 | 2.75 | 1.78 | 3.42 | 2.92 |
| AUUUACCUAGGUCACCGGGUG [Fam2.2 aminoacylation ribozyme variant] | 26.5 | 3.61 | 4.23 | 3.08 | 6.09 | 3.83 |
| AUUUACCUAGGUCAUCGGGUA [Fam2.2 aminoacylation ribozyme variant] | 218 | 14.1 | 29.5 | 12.3 | 39.9 | 22.2 |
| AUUUACCUAGGUGAUCGGGUG [Fam2.2 aminoacylation ribozyme variant] | 15 | 2.46 | 2.64 | 2.45 | 3.24 | 2.89 |
| AUUUCACUGGUCAUCGAGUGA [Fam2.1 aminoacylation ribozyme variant] | 19.9 | 2.99 | 4.7 | 2.85 | 4.92 | 6.42 |
| AUUUCCCCGGUCAUCGAGUGA [Fam2.1 aminoacylation ribozyme variant] | 32.5 | 3.34 | 5.69 | 3.65 | 5.8 | 8.04 |
| AUUUCCCUGGUCAACGAGUGA [Fam2.1 aminoacylation ribozyme variant] | 42.4 | 3.9 | 6.93 | 3.91 | 6.99 | 8.23 |
| AUUUCCCUGGUCAUAGAGUGA [Fam2.1 aminoacylation ribozyme variant] | 61.5 | 4.67 | 9.7 | 4.88 | 9.78 | 12.2 |
| AUUUCCCUGGUCAUCGAGUAA [Fam2.1 aminoacylation ribozyme variant] | 3.9 | 1.56 | 2.39 | 1.83 | 2.52 | 2.37 |
| AUUUCCCUGGUCAUCGAGUGA [Fam2.1 aminoacylation ribozyme variant] | 27.4 | 7.41 | 14.3 | 8.47 | 14.3 | 16.5 |
| AUUUCCCUGGUCAUUGAGUGA [Fam2.1 aminoacylation ribozyme variant] | 63.1 | 4.47 | 8.36 | 4.4 | 8.38 | 10 |
| AUUUCCCUGGUCGUCGAGUGA [Fam2.1 aminoacylation ribozyme variant] | 4.18 | 1.06 | 1.12 | 1.08 | 1.21 | 1.55 |
| AUUUCCCUGGUCUUCGAGUGA [Fam2.1 aminoacylation ribozyme variant] | 47.9 | 4.33 | 6.94 | 4.6 | 7.28 | 9.21 |
| AUUUCCCUUGUCAUCGAGUGA [Fam2.1 aminoacylation ribozyme variant] | 46 | 3.62 | 7.14 | 4.17 | 7.73 | 8.99 |
| AUUUCUCUGGUCAUCGAGUGA [Fam2.1 aminoacylation ribozyme variant] | 20.5 | 3.1 | 5.74 | 3.2 | 5.82 | 7.1 |
| AUUUUCCUAGGUCAUCGGGUG [Fam2.2 aminoacylation ribozyme variant] | 30.9 | 4.64 | 6.79 | 4.16 | 9.58 | 6.89 |
| CAACACUUCAAGCAAGCGGUC [Fam1B.1 aminoacylation ribozyme variant] | 0.831 | 1.1 | 1.24 | 0.953 | 1.25 | 0.593 |
| CAACACUUCAAGCAAUCAGUC [Fam1B.1 aminoacylation ribozyme variant] | 14.5 | 0.858 | 0.716 | 0.772 | 0.923 | 4.78 |
| CAACACUUCAAGCAAUCGCUC [Fam1B.1 aminoacylation ribozyme variant] | 0.965 | 1.85 | 1.19 | 1.57 | 2.04 | 1.54 |
| CAACACUUCAAGCCAUCGGUC [Fam1B.1 aminoacylation ribozyme variant] | 1.04 | 1.35 | 1.35 | 1.48 | 1.74 | 1.24 |
| CAACACUUCAAGCGAUCGGUC [Fam1B.1 aminoacylation ribozyme variant] | 1.94 | 1.27 | 1.29 | 1.25 | 1.55 | 1.81 |
| CAACACUUGAAGCAAUCGGUC [Fam1B.1 aminoacylation ribozyme variant] | 0.601 | 0.911 | 0.731 | 0.828 | 0.842 | 0.696 |
| CAACACUUUAAGCAAUCGGUC [Fam1B.1 aminoacylation ribozyme variant] | 1.03 | 0.96 | 0.762 | 0.846 | 0.854 | 0.886 |

| Sequence | self-aminoacylation [1] | self-aminoacylation [2] | self-aminoacylation [3] | self-aminoacylation [4] | self-aminoacylation [5] | self-aminoacylation [6] |
| --- | --- | --- | --- | --- | --- | --- |
| CAACAGUUCAAGCAAUCGGUC [Fam1B.1 aminoacylation ribozyme variant] | 4.54 | 1.22 | 1.28 | 1.15 | 1.38 | 3.42 |
| CAACUUCAAAAAAUCGGUCUG [Fam1A.1 aminoacylation ribozyme variant] | 14.8 | 1.7 | 1.15 | 1.31 | 1.46 | 11.9 |
| CAACUUCAAACAACCGGUCUG [Fam1A.1 aminoacylation ribozyme variant] | 3.54 | 1.24 | 1.11 | 1.32 | 1.14 | 1.75 |
| CAACUUCAAACAAGCGGUCUG [Fam1A.1 aminoacylation ribozyme variant] | 1.19 | 1.42 | 1.24 | 1 | 1.12 | 1.3 |
| CAACUUCAAACAAUCGGUAUG [Fam1A.1 aminoacylation ribozyme variant] | 33.3 | 1.21 | 1.31 | 1.04 | 1.61 | 21 |
| CAACUUCAAACAAUCGGUCUU [Fam1A.1 aminoacylation ribozyme variant] | 45.8 | 1.59 | 1.53 | 1.5 | 2.43 | 27.7 |
| CAACUUCAAACAUUCGGUCUG [Fam1A.1 aminoacylation ribozyme variant] | 11.5 | 1.53 | 1.34 | 1.57 | 1.5 | 1.74 |
| CAACUUCAAAUAAUCGGUCUG [Fam1A.1 aminoacylation ribozyme variant] | 15.6 | 1.27 | 1.05 | 1.11 | 1.39 | 12.2 |
| CAACUUCAAGCAAUCGGUCUG [Fam1A.1 aminoacylation ribozyme variant] | 27.2 | 1.54 | 1.59 | 1.39 | 2.26 | 20.5 |
| CAGCUUGCUAAUAGUCGCAAG [Fam3.1 aminoacylation ribozyme variant] | 2.54 | 1.82 | 1.72 | 1.86 | 1.89 | 1.72 |
| CAGUUUGAUAAUAGUCGCAAG [Fam3.1 aminoacylation ribozyme variant] | 1.89 | 1.4 | 1.32 | 1.54 | 1.34 | 1.26 |
| CAGUUUGCCAAUAGUCGCAAG [Fam3.1 aminoacylation ribozyme variant] | 6.08 | 2.08 | 1.83 | 1.82 | 1.91 | 1.34 |
| CAGUUUGCUAAAAGUCGCAAG [Fam3.1 aminoacylation ribozyme variant] | 1.86 | 1.46 | 1.64 | 1.4 | 1.5 | 1.3 |
| CAGUUUGCUAAUAGUCGCCAG [Fam3.1 aminoacylation ribozyme variant] | 10.1 | 1.86 | 1.91 | 2.17 | 2.43 | 2.45 |
| CAGUUUGCUGAUAGUCGCAAG [Fam3.1 aminoacylation ribozyme variant] | 1.88 | 1.34 | 1.11 | 1.27 | 1.17 | 1.99 |
| CAGUUUGUUAAUAGUCGCAAG [Fam3.1 aminoacylation ribozyme variant] | 2.25 | 1.57 | 1.74 | 1.42 | 1.64 | 1.37 |
| CAUACCCUGGUCAUCGAGUGA [Fam2.1 aminoacylation ribozyme variant] | 17.6 | 5.75 | 11.3 | 6.04 | 11.8 | 11.7 |
| CAUCACUUCAAGCAAUCGGUC [Fam1B.1 aminoacylation ribozyme variant] | 32.7 | 1.17 | 1.09 | 1.2 | 1.47 | 15.6 |
| CCAAAAUUCAAGCAAUCGGUC [Fam1B.1 aminoacylation ribozyme variant] | 1.09 | 1.17 | 1.01 | 1.21 | 1.08 | 1.13 |
| CCAAACUUCAAGAAAUCGGUC [Fam1B.1 aminoacylation ribozyme variant] | 6.01 | 0.936 | 0.927 | 0.84 | 0.986 | 5.02 |
| CCAAACUUCAAGCAAUCGGUC [Fam1B.1 aminoacylation ribozyme variant] | 30.1 | 1.19 | 1.02 | 1.26 | 1.41 | 15.6 |
| CCAAACUUCAAGCAUUCGGUC [Fam1B.1 aminoacylation ribozyme variant] | 1.96 | 2.1 | 1.83 | 1.86 | 1.84 | 1.75 |
| CCACAAUUAAAGCAAUCGGUC [Fam1B.1 aminoacylation ribozyme variant] | 0.833 | 1.13 | 0.88 | 1.13 | 0.881 | 0.66 |
| CCACAAUUCAAGCAAGCGGUC [Fam1B.1 aminoacylation ribozyme variant] | 0.932 | 1.3 | 1.3 | 1.42 | 0.998 | 0.509 |
| CCACAAUUCAAGCAAUCGGCC [Fam1B.1 aminoacylation ribozyme variant] | 5.63 | 4.08 | 4.55 | 4.38 | 3.52 | 3.88 |
